Here are results for 1 molecule from patent US20200140562A1 (Innovent, published 2020).

Experiment [1] addresses T1, human OX40 on cells (CHO-hOX40, 293HEK-hOX40, Jurkat-hOX40, activated primary CD4+ T cells) (human, UniProt P43489 29-277).
T1 sequence (looked up): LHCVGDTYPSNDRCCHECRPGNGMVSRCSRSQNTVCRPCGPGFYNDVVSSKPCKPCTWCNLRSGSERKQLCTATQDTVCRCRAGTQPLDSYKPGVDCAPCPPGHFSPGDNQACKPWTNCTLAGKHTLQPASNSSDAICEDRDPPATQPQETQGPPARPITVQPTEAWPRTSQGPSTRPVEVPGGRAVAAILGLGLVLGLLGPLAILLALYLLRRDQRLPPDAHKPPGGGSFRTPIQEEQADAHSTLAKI
The experiment in a line: cell-based or functional assay.

In experiment [2] the target is T1, human OX40 on cells (CHO-hOX40, …). The experiment in a line: flow cytometry competition on CHO cells expressing human OX40; blocked ligand OX40L-mFc (60 ug/ml), detected with anti-murine Fc-FITC. (In general: Flow cytometry measures light scatter and fluorescence of single cells or particles in a stream.)
Experiment [3] shares this target. The experiment in a line: flow cytometry, CHO-hOX40, 12.5 nM.
The target is the same in experiment [4]. Briefly: flow cytometry, CHO-hOX40, 0.390625 nM.
For experiment [5] the target is unchanged. The experiment in a line: flow cytometry, CHO-hOX40, 100 nM.
Experiment [6] shares this target. Briefly: flow cytometry, CHO-hOX40, 0.09765625 nM.
For experiment [7] the target is unchanged. The experiment in a line: flow cytometry, CHO-hOX40, 200 nM.
The target is the same in experiment [8]. The experiment in a line: flow cytometry, CHO-hOX40, 0.1953125 nM.
For experiment [9] the target is unchanged. Briefly: flow cytometry, CHO-hOX40, 25 nM.
The target is the same in experiment [10]. Briefly: flow cytometry, CHO-hOX40, 1.5625 nM.
The target is the same in experiment [11]. Briefly: flow cytometry, CHO-hOX40, 50 nM.
The target is the same in experiment [12]. The experiment in a line: flow cytometry, CHO-hOX40, 0.78125 nM.
The target is the same in experiment [13]. The experiment in a line: flow cytometry, CHO-hOX40.
Experiment [14] shares this target. Briefly: flow cytometry, CHO-hOX40, 100 nM blocker, competitor OX40L-hFc-fluorescein.
Experiment [15] shares this target. The experiment in a line: flow cytometry, CHO-hOX40, 6.25 nM.
Experiment [16] has the same target. Briefly: flow cytometry, CHO-hOX40, 100 nM. This is another data set of the same source.
The target is the same in experiment [17]. Briefly: flow cytometry, CHO-hOX40, 1.5625 nM. The source holds these as a separate data set.
Experiment [18] has the same target. The experiment in a line: flow cytometry, CHO-hOX40, 0.09765625 nM. This is another data set of the same source.
Experiment [19] shares this target. Briefly: flow cytometry, CHO-hOX40, 200 nM. The source holds these as a separate data set.
Experiment [20] has the same target. Briefly: flow cytometry, CHO-hOX40, 0.390625 nM. The source holds these as a separate data set.

B1: OX40L (control reagent; recombinant OX40L, Acro Biosystems) (ligand, UniProt P23510 51-183, looked up)
chain: QVSHRYPRIQSIKVQFTEYKKEKGFILTSQKEDEIMKVQNNSVIINCDGFYLISLKGYFSQEVNISLHYQKDEEPLFQLKKVRSVNSLMVASLTYKDKVYLNVTTDNTSLDDFHVNGGELILIHQNPGEFCVL
notes: may be the same reagent as OX40L-hFc
As a reminder, the EC50 is the concentration that produces a half-maximal response. For B1, the “NFkB-Luc fold change in Jurkat stimulated by PHA+ anti-CD28” value in experiment [1] came out at 4.82 fold over IgG4 control. Besides, in [1], the “NFkB-Luc fold change in Jurkat stimulated by anti-CD3+ anti-CD28” value was 4.05 fold over IgG4 control. The “IC50 (read off the curve)” value in [2] is roughly 20 nM. For the same molecule, the MFI in [3] worked out at 1.99e+06 MFI; in experiment [4] it was 49700 MFI; in [5], 2.51e+06 MFI; in experiment [6], 14500 MFI; in experiment [7], 2.08e+06 MFI; in [8] it was 24800 MFI. Besides, the MFI in experiment [9] worked out at 1.84e+06 MFI; in [10], 172000 MFI; in experiment [11], 2.72e+06 MFI; in experiment [12], 317000 MFI; in experiment [15], 600000 MFI; in experiment [16], 2.57e+06 MFI. Besides, the MFI in experiment [17] turned out to be 554000 MFI; in experiment [18], 35200 MFI; in experiment [19] it was 2.68e+06 MFI; in experiment [20], 119000 MFI. Further, the midpoint of the response in [13], the EC50, lay at 5.33 nM. For the same molecule, the “MFI of OX40L signal on CHO-OX40 cells” value in experiment [14] was determined as 19300 MFI.
